This passage reports interaction score results from PMC10397247.

One experiment addresses T1, APC2811-AA.
T1 chain: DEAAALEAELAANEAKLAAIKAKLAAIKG
The experiment in a line: two-hybrid library CCmax.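 Further: natural log of median RNA to DNA barcode read ratio; higher means stronger binding.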 The note with it: mean of both orientations.

In another experiment the target is T2, APC3265-AA.
T2 chain: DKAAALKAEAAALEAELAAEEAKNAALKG
The experiment in a line: two-hybrid library CCmax.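 Further: natural log of median RNA to DNA barcode read ratio; higher means stronger binding.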 The note with it: mean of both orientations.

In a further experiment the target is T3, APC1987-AA.
T3 chain: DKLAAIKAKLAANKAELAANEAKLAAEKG
In words: two-hybrid library CCmax.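 Further: natural log of median RNA to DNA barcode read ratio; higher means stronger binding.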 The note with it: mean of both orientations.

For a further experiment, the target named is T4, APC542-AA.
T4 chain: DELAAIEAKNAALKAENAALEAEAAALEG
In words: two-hybrid library CCmax.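 Further: natural log of median RNA to DNA barcode read ratio; higher means stronger binding.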 To be noted: mean of both orientations.

The next experiment addresses T5, APC2556-AA.
T5 chain: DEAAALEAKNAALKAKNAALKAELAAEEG
The experiment in a line: two-hybrid library CCmax. To be noted: mean of both orientations.

In a further experiment the target is T6, APC7524-AA.
T6 chain: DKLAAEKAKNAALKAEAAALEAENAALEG
The experiment in a line: two-hybrid library CCmax. To be noted: mean of both orientations.

Another experiment addresses T7, APC4100-AA.
T7 chain: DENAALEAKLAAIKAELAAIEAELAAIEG
In words: two-hybrid library CCmax. To be noted: mean of both orientations.

The target in another experiment is T8, APC3881-AA.
T8 chain: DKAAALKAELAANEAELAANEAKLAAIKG
The experiment in a line: two-hybrid library CCmax. The note with it: mean of both orientations.

The target in another experiment is T9, APC9141-AA.
T9 chain: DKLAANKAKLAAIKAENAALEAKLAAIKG
The experiment in a line: two-hybrid library CCmax. To be noted: mean of both orientations.

A further experiment addresses T10, APC9291-AA.
T10 chain: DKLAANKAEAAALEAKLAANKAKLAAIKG
The experiment in a line: two-hybrid library CCmax. To be noted: mean of both orientations.

A further experiment has as its target T11, APC4336-AA.
T11 chain: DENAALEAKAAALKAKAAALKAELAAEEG
The experiment in a line: two-hybrid library CCmax. The note with it: mean of both orientations.

Another experiment deals with T12, APC5009-AA.
T12 chain: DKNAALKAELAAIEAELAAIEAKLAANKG
In words: two-hybrid library CCmax. The note with it: mean of both orientations.

In another experiment the target is T13, APC1242-AA.
T13 chain: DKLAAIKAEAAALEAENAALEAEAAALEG
In words: two-hybrid library CCmax.

The target of a further experiment is T14, APC8516-AA.
T14 chain: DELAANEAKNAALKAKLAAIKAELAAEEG
The experiment in a line: two-hybrid library CCmax. The note with it: mean of both orientations.

The next experiment concerns the target T15, APC2375-AA.
T15 chain: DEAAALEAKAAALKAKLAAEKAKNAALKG
In words: two-hybrid library CCmax. To be noted: mean of both orientations.

The target in a further experiment is T16, APC8401-AA.
T16 chain: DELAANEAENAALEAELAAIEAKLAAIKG
The experiment in a line: two-hybrid library CCmax. To be noted: mean of both orientations.

A further experiment addresses T17, APC2257-AA.
T17 chain: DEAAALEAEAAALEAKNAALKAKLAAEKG
The experiment in a line: two-hybrid library CCmax. To be noted: mean of both orientations.

For a further experiment, the target named is T18, APC222-AA.
T18 chain: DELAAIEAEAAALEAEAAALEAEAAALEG
In words: two-hybrid library CCmax. The note with it: mean of both orientations.

Another experiment addresses T19, APC2981-AA.
T19 chain: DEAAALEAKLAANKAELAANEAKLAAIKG
The experiment in a line: two-hybrid library CCmax. The note with it: mean of both orientations.

For a further experiment, the target named is T20, APC2474-AA.
T20 chain: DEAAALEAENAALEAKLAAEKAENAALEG
The experiment in a line: two-hybrid library CCmax. The note with it: mean of both orientations.

Another experiment addresses T21, APC2543-AA.
T21 chain: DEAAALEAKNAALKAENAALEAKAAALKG
The experiment in a line: two-hybrid library CCmax. To be noted: mean of both orientations.

A further experiment has as its target T22, APC2724-AA.
T22 chain: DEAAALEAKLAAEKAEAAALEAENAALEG
The experiment in a line: two-hybrid library CCmax. The note with it: mean of both orientations.

The target of a further experiment is T23, APC3323-AA.
T23 chain: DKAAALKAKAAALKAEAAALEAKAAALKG
The experiment in a line: two-hybrid library CCmax. To be noted: mean of both orientations.

The target of a further experiment is T24, APC1916-AA.
T24 chain: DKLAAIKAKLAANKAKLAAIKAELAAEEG
The experiment in a line: two-hybrid library CCmax. The note with it: mean of both orientations.

The next experiment has as its target T25, APC9182-AA.
T25 chain: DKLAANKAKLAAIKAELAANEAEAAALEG
In words: two-hybrid library CCmax. To be noted: mean of both orientations.

In the next experiment the target is T26, APC3354-AA.
T26 chain: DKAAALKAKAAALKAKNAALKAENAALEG
The experiment in a line: two-hybrid library CCmax. The note with it: mean of both orientations.

The target in the next experiment is T27, APC9806-AA.
T27 chain: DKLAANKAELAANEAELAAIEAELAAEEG
The experiment in a line: two-hybrid library CCmax. The note with it: mean of both orientations.

A further experiment has as its target T28, APC5531-AA.
T28 chain: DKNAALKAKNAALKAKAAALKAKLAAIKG
In words: two-hybrid library CCmax. The note with it: mean of both orientations.

The next experiment addresses T29, APC6088-AA.
T29 chain: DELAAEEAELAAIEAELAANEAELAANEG
The experiment in a line: two-hybrid library CCmax. The note with it: mean of both orientations.

A further experiment addresses T30, 4H342-bA.
T30 chain: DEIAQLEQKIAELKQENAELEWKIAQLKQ
In words: two-hybrid library CCNG1.

Another experiment concerns the target T31, 4H48-bA.
T31 chain: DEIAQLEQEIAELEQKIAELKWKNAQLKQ
In words: two-hybrid library CCNG1.

In another experiment the target is T32, 4H2883-bA.
T32 chain: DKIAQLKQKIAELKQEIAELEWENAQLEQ
In words: two-hybrid library CCNG1.

Another experiment concerns the target T33, 4H2944-bA.
T33 chain: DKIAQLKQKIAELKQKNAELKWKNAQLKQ
In words: two-hybrid library CCNG1.

A further experiment has as its target T34, 4H2937-bA.
T34 chain: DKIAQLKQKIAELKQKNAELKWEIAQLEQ
The experiment in a line: two-hybrid library CCNG1.

For the next experiment, the target named is T35, 4H2696-bA.
T35 chain: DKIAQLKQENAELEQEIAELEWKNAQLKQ
In words: two-hybrid library CCNG1.

For a further experiment, the target named is T36, 4H491-bA.
T36 chain: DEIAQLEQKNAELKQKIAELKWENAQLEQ
The experiment in a line: two-hybrid library CCNG1.

B1: APC1242-AA (peptide)
chain: DKLAAIKAEAAALEAENAALEAEAAALEG
B1: the interaction score with APC2811-AA was -1.73; with APC3265-AA, -1.56; in the experiment with APC1987-AA, -1.67; with APC542-AA, -2.16; with APC2556-AA, -1.73; with APC7524-AA, -1.82. In addition, the interaction score with APC4100-AA was -1.76; with APC3881-AA, -1.81; with APC9141-AA, -1.7; in the experiment with APC9291-AA, -1.76; in the experiment with APC4336-AA it was -2.21; with APC5009-AA it was -1.74. Besides, the interaction score with APC1242-AA is -1.39; with APC8516-AA, -1.75; with APC2375-AA it was -1.54; with APC8401-AA it was -1.53; with APC2257-AA, -1.45; in the experiment with APC222-AA it was -1.71. For the same molecule, the interaction score in the experiment with APC2981-AA was -1.87; in the experiment with APC2474-AA, -1.53; in the experiment with APC2543-AA, -1.38; in the experiment with APC2724-AA it was -1.96; with APC3323-AA, -1.85; with APC1916-AA, -0.197. The interaction score with APC9182-AA was -1.34; with APC3354-AA it was -1.74; with APC9806-AA it was -1.43; with APC5531-AA it was -1.83; with APC6088-AA, -1.12.

B2: 4H2696-bA (peptide)
chain: DKIAQLKQENAELEQEIAELEWKNAQLKQ
On to B2, for which the interaction score is -0.319 in the experiment with 4H342-bA; -0.267 with 4H48-bA; 0.674 with 4H2883-bA; 0.173 in the experiment with 4H2944-bA; 0.659 with 4H2937-bA; -0.668 with 4H2696-bA. The interaction score in the experiment with 4H491-bA turned out to be 1.93.
